{
  "source": "patent US9890407B2",
  "about": "“Method for synthesizing cellulose in vitro” (University of Virginia Patent Foundation, priority 2013, dated 2018)",
  "key": {"cellulose synthesis [1]": {"test_system": "cellulose synthesis", "assay": "Cellulose synthesis activity of inverted membrane vesicles / PLs containing BcsA, BcsB or truncated BcsB", "assay_type": "biochemical, Rhodobacter sphaeroides", "settings": "for catalytic activity (HMW polymer formation): IMVs, 60 min 37° C., with c-di-GMP", "method": "FIG. 1A-1C (also referred to as Example 1, FIG. 1): BcsA and BcsB are necessary for cellulose synthesis. (FIG. 1A) Inverted membrane vesicles containing either BcsA, BcsB, or both subunits were incubated for 60 min at 37° C. in the presence and absence of c-di-GMP and 0.25 μCi UDP-[^3H]-Glc. The synthesized polymer was purified by descending paper chromatography and quantified by scintillation counting. The amount of product obtained is shown relative to the product formed from IMVs containing BcsA and BcsB. Control reactions were performed with IMVs derived from cells containing an empty pET28a vector or in the absence of c-di-GMP or the presence of 20 mM EDTA. Results are shown in light and dark gray for components from Ec and Rs, respectively. (FIG. 1B) immuno-blotting of IMVs containing BcsA and BcsB. BcsA and BcsB were expressed with C-terminal poly-histidine- and FLAG-tags, respectively, and the equivalent amounts of IMVs used for activity assays were analyzed under non-reducing conditions by western blotting. […]\nFIG. 6A-6C (also referred to as Example 1, FIG. 6): The membrane-associated domain of BesB is required for cellulose synthesis. […] IMVs containing wild-type BesA and the indicated BesB constructs were tested for cellulose synthase activity by quantifying the accumulation of radioactively labeled cellulose. […] (FIG. 6C) Western analysis of the analyzed IMVs and PLs. […] The equivalent amounts of IMVs used for activity assays were used to quantify the BcsA and BcsB expression levels. Vesicles containing WT and the BcsA-B-S684-r complex were analyzed on separate gels. […]\nGram-negative bacteria transport cellulose across the inner and outer bacterial membranes. […] To identify the complex components required for cellulose synthesis and translocation across the inner bacterial membrane, we expressed BcsA and BcsB from Escherichia coli (Ec) K12 and Rhodobacter sphaeroides (Rs) in E. coli C43 (28), prepared inverted membrane vesicles (IMVs), and analyzed them for cellulose synthesis activity. […]"}, "cellulose synthesis [2]": {"test_system": "cellulose synthesis", "assay_type": "biochemical, Rhodobacter sphaeroides"}},
  "data": [
    {"molecule": "BcsA-B-S684: BcsA complexed with BcsB fragment N-terminally truncated to start at Ser684", "values": [
      {"measurement": "catalytic activity after reconstitution into PLs", "setting": "cellulose synthesis [1]; purified truncated complex in PLs", "value": "catalytically active"}
    ]},
    {"molecule": "E371A (protein) MGTVRAKARSPLRVVPVLLFLLWVALLVPFGLLAAAPVAPSAQGLIALSAVVLVALLKPFADKMVPRFLLLSAASMLVMRYWFWRLFETLPPPALDASFLFALLLFAVETFSISIFFLNGFLSADPTDRPFPRPLQPEELPTVDILVPSYNEPADMLSVTLAAAKNMIYPARLRTVVLCDDGGTDQRCMSPDPELAQKAQERRRELQQLCRELGVVYSTRERNEHAKAGNMSAALERLKGELVVVFDADHVPSRDFLARTVGYFVEDPDLFLVQTPHFFINPDPIQRNLALGDRCPPENEMFYGKIHRGLDRWGGAFFCGSAAVLRRRALDEAGGFAGETITEDAETALEIHSRGWKSLYIDRAMIAGLQPATFASFIQQRGRWATGMMQMLLLKNPLFRRGLGIAQRLCYLNSMSFWFFPLVRMMFLVAPLIYLFFGIEIFVATFEEVLAYMPGYLAVSFLVQNALFARQRWPLVSEVYEVAQAPYLARAIVTTLLRPRSARFAVTAKDETLSENYISPIYRPLLFTFLLCLSGVLATLVRWVAFPGDRSVLLVVGGWAVLNVLLVGFALRAVAEKQQRRAAPRVQMEVPAEAQIPAFGNRSLTATVLDASTSGVRLLVRLPGVGDPHPALEAGGLIQFQPKFPDAPQLERMVRGRIRSARREGGTVMVGVIFEAGQPIAVRETVAYLIFGESAHWRTMREATMRPIGLLHGMARILWMAAASLPKTARDFMDEPARRRRRHEEPKEKQAHLLAFGTDFSTEPDWAGELLDPTAQVSARPNTVAWGSNHHHHHHKLHHHHHH", "values": [
      {"measurement": "increase of catalytic activity in the absence of c-di-GMP compared to wild type enzyme", "setting": "cellulose synthesis [2]; no c-di-GMP, IMVs and PLs", "value": "approximately 6 fold"}
    ]},
    {"molecule": "R580A (protein) MGTVRAKARSPLRVVPVLLFLLWVALLVPFGLLAAAPVAPSAQGLIALSAVVLVALLKPFADKMVPRFLLLSAASMLVMRYWFWRLFETLPPPALDASFLFALLLFAVETFSISIFFLNGFLSADPTDRPFPRPLQPEELPTVDILVPSYNEPADMLSVTLAAAKNMIYPARLRTVVLCDDGGTDQRCMSPDPELAQKAQERRRELQQLCRELGVVYSTRERNEHAKAGNMSAALERLKGELVVVFDADHVPSRDFLARTVGYFVEDPDLFLVQTPHFFINPDPIQRNLALGDRCPPENEMFYGKIHRGLDRWGGAFFCGSAAVLRRRALDEAGGFAGETITEDAETALEIHSRGWKSLYIDRAMIAGLQPETFASFIQQRGRWATGMMQMLLLKNPLFRRGLGIAQRLCYLNSMSFWFFPLVRMMFLVAPLIYLFFGIEIFVATFEEVLAYMPGYLAVSFLVQNALFARQRWPLVSEVYEVAQAPYLARAIVTTLLRPRSARFAVTAKDETLSENYISPIYRPLLFTFLLCLSGVLATLVRWVAFPGDRSVLLVVGGWAVLNVLLVGFALRAVAEKQQRAAAPRVQMEVPAEAQIPAFGNRSLTATVLDASTSGVRLLVRLPGVGDPHPALEAGGLIQFQPKFPDAPQLERMVRGRIRSARREGGTVMVGVIFEAGQPIAVRETVAYLIFGESAHWRTMREATMRPIGLLHGMARILWMAAASLPKTARDFMDEPARRRRRHEEPKEKQAHLLAFGTDFSTEPDWAGELLDPTAQVSARPNTVAWGSNHHHHHHKLHHHHHH", "values": [
      {"measurement": "dependence of catalytic activity on c-di-GMP", "setting": "cellulose synthesis [2]; formation of cellulose or UDP, with and without 30 μM c-di-GMP", "value": "constitutively active"}
    ]},
    {"molecule": "BcsB: bacterial cellulose synthase B, periplasmic membrane-anchored subunit (SEQ ID NO:3) (protein, Rhodobacter sphaeroides) MDMRLLPFLFLGTLASMAAAQDAPMIVIEGLTSEEPQASPDAVAEAVPAAEVAPWIIPLRPLAETAQVGPLFRLQGQQARAAFRLFLPTEAVGGTLTLAQRSSIDILPESSQIIVRMNDQEIGRFTPRQFGALGAVTMPLGEAVRAGDNLVTIEAQHRHRIYCGADAEFDLWTEVDLSQSGVALPAAAIGTEPTSFIAALTAQAESGRPVEIRTPTPPDEATLRTLAQALGRPLPDEALPLALSKPWSAETGPTYARITLLPSDADRVSIRRGGDGAVVLVLEHPPEGSPNASLVADLLGATPTLPPPTLPQIPPGRVVTLADMGVDTILTDNRYFNRDIDFQLPDDWLLLASQKAQIGIDYGFAGGLPEGALLLVKVNGTTVRMLPLDRDAAPVKPRLDIRFPARLLHPGPNRLSFESVIPGNPPDQPCPASAGDLMQVLSSTDLEVPPSPRMQMADMARDLAQVTPASVHPATPDGLARTLPFMAAFREVPDAAPVDLTVAGLHDIATVPLNEEGLTPRLLALTLLPSTVSRLVERPATPAGPPANALAPLGAAPGEGVMPPLVESNWSDRAQTFVQATLQPVIQTVRRMLRPGDGNLAEWLATRKGTAMLLAPEPGKLWVILGPEAEPARVAEALAMAPRSPGGPRGQVAVLGSDGRWSSWSKPGLLPELREPVSLDNVRSVVGNVASARPPLLLGGMLGLAWISAAIAVGFVLRTRRKGLK", "values": [
      {"measurement": "catalytic activity (HMW polymer formation)", "setting": "cellulose synthesis [1]", "value": "catalytically inactive"}
    ]},
    {"molecule": "BcsA: bacterial cellulose synthase A, catalytic subunit (SEQ ID NO:1) (protein, Rhodobacter sphaeroides) MTVRAKARSPLRVVPVLLFLLWVALLVPFGLLAAAPVAPSAQGLIALSAVVLVALLKPFADKMVPRFLLLSAASMLVMRYWFWRLFETLPPPALDASFLFALLLFAVETFSISIFFLNGFLSADPTDRPFPRPLQPEELPTVDILVPSYNEPADMLSVTLAAAKNMIYPARLRTVVLCDDGGTDQRCMSPDPELAQKAQERRRELQQLCRELGVVYSTRERNEHAKAGNMSAALERLKGELVVVFDADHVPSRDFLARTVGYFVEDPDLFLVQTPHFFINPDPIQRNLALGDRCPPENEMFYGKIHRGLDRWGGAFFCGSAAVLRRRALDEAGGFAGETITEDAETALEIHSRGWKSLYIDRAMIAGLQPETFASFIQQRGRWATGMMQMLLLKNPLFRRGLGIAQRLCYLNSMSFWFFPLVRMMFLVAPLIYLFFGIEIFVATFEEVLAYMPGYLAVSFLVQNALFARQRWPLVSEVYEVAQAPYLARAIVTTLLRPRSARFAVTAKDETLSENYISPIYRPLLFTFLLCLSGVLATLVRWVAFPGDRSVLLVVGGWAVLNVLLVGFALRAVAEKQQRRAAPRVQMEVPAEAQIPAFGNRSLTATVLDASTSGVRLLVRLPGVGDPHPALEAGGLIQFQPKFPDAPQLERMVRGRIRSARREGGTVMVGVIFEAGQPIAVRETVAYLIFGESAHWRTMREATMRPIGLLHGMARILWMAAASLPKTARDFMDEPARRRRRHEEPKEKQAHLLAFGTDFSTEPDWAGELLDPTAQVSARPNTVAWGSN", "values": [
      {"measurement": "catalytic activity (HMW polymer formation)", "setting": "cellulose synthesis [1]", "value": "catalytically inactive"}
    ]}
  ]
}
